This note sets out measurements from patent publication US20240317871A1 (IMMUNOMIC THERAPEUTICS, published 2024).

For experiment [1], the target named is T1, Human HEVM recombinant protein (Sino Biological, 10334-H02H) (human, UniProt Q92956 39-202).
T1 construct: construct known only by catalogue number; also called HVEM; human HVEM
T1 sequence (looked up): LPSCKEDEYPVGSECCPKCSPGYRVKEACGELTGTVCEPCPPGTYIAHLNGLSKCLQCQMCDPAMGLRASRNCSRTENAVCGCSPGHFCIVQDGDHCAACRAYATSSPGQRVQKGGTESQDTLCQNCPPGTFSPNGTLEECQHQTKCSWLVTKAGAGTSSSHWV
In words: competition ELISA, competitor LIGHT-His. Here is the method:
The competitive activity of HVEM antibody to BTLA or LIGHT was evaluated with ELISA-based competitive assay. Briefly Human HEVM recombinant protein (Sino Biological, 10334-H02H, 4 ug/ml, 100 ul/well) was coated to ELISA plate (Thermo Scientific, 469949, 4C overnight). A pre-mixture of HVEM antibody clone with seral dilution and 400 nM BTLA-His (R&D systems, 9235-BT-050) or LIGHT-His (SinoBiological, 10386-H07H) recombinant protein was made and added to the ELISA plate after blocking with 3% BSA (200 ul/well, RT 2 Hr) for 1 Hr at RT. The serial dilutions of HVEM antibody clone involve 7 different concentrations, with a 3-fold dilution performed start from 100 nM for BTLA or 325 nM for LIGHT competitive assay. The concentration was the final concentration. Plate was washed with PBST; diluted HRP-anti-His (Biolegend, 652504, 1:1000) with PBS containing 5% FBS was added 100 ul per well for 1 Hr at RT. TMB substrate (KPL, 52-00-00) 100 ul per well after washing and incubate at room temperature for 15 minutes; then stop the development by adding 100 ul stop solution (KPL, 50-85-06). Plate was read at 450 nm. The IC50 was calculated using GraphPad Prism software (GraphPad Software, Inc. San Diego, CA, USA).
In general terms: In an ELISA, binding on a coated surface is turned into a signal by an enzyme label.

In experiment [2] the target is T1, Human HEVM recombinant protein (Sino …). The experiment in a line: competition ELISA, competitor BTLA-His. The essentials:
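HVEM protein coated at 4 ug/ml; antibody serially diluted 3-fold over 7 points (final top 100 nM for BTLA, 325 nM for LIGHT), premixed with 400 nM His-tagged competitor and incubated 1 Hr at RT. Bound competitor detected by HRP-anti-His/TMB at 450 nm; IC50 calculated.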

Experiment [3] concerns the target T2, His-tagged human HVEM (human, UniProt Q92956 39-202, limits assumed).
T2 construct: Analyte of the BLI assay, 200 nM in PBS; not shown: His tag
T2 sequence (looked up): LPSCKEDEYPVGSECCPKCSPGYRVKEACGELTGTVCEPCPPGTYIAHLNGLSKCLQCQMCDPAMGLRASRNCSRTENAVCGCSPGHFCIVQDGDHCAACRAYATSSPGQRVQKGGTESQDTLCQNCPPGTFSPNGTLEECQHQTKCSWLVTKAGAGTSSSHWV
In words: BLI OctetRed96, mAb captured, 200 nM His-HVEM. The essentials: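 Murine anti-human HVEM antibodies captured from culture supernatant on anti-mouse IgG Fc biosensors, then associated with 200 nM His-tagged human HVEM in PBS, followed by dissociation in PBS. koff, kon and KD obtained by curve fitting.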

Experiment [4] deals with T3, human HVEM (human, UniProt Q92956 39-202, limits assumed).
T3 sequence (looked up): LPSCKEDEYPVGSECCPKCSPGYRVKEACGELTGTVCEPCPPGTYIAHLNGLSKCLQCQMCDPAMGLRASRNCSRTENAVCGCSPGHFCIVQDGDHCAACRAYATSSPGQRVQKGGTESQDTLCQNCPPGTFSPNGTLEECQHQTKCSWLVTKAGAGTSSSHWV
In words: ELISA.

Experiment [5] has as its target T4, murine HVEM (murine, UniProt Q80WM9 39-206, limits assumed).
T4 construct: also called Mouse
T4 sequence (looked up): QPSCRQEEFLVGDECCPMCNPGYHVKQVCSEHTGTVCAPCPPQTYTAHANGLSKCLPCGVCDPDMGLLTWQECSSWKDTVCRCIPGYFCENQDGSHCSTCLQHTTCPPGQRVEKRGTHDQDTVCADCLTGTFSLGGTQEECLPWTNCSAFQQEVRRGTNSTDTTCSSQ
The experiment in a line: ELISA.

Experiment [6] addresses T5, cynomolgus monkey HVEM (cynomolgus monkey, UniProt A0A2K5W0R1 39-203).
T5 sequence: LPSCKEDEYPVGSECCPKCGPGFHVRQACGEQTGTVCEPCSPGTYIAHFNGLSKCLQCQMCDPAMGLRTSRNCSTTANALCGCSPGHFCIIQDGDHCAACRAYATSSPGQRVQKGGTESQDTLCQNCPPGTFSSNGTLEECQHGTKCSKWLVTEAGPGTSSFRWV
In words: ELISA.

B1: Ab_065 (H5S20-39A29A) (antibody, V domains shown)
VH: EVKLVESGGGLVKPGGSLKLSCAASGFTFSSYAMSWVRQTPETRLEWVASISSGGNTYYPDSVKGRFTISRDNVRNILYLQMSSLRSEDTAMYFCTRGGYGSSHVIWGQGTTLTVSS
VL: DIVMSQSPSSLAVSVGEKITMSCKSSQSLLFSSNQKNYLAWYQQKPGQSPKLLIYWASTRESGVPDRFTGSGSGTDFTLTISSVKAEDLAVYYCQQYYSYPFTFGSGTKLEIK
notes: also called Ab_65
One may read the IC50 as the concentration needed to halve the response being measured. One may read the Kd as a measure of binding affinity in units of concentration. What is called koff is the rate constant with which the complex falls apart. What is called kon is the second-order rate constant of association. Regarding B1, the IC50 in experiment [1] is 8 nM; in experiment [2], 1.7 nM. In addition, in experiment [3], the affinity, expressed as Kd, was 14.9 nM. In experiment [3], this molecule had a koff of 0.0049 s⁻¹. Also, in experiment [3], the kon turned out to be 330000 M⁻¹ s⁻¹. Also, the results for the ELISA signal in experiment [4], in experiment [5] and in experiment [6] were 3.24, 0.044 and 1.52, respectively.

B2: Ab_063 (H5S20-4A4A) (antibody, V domains shown)
VH: EVKLVESGGGLMKPGGSLKLSCAASGFTFSSYAMSWVRQTPETRLEWVASISSGGSTYYPDSVKGRFTISRDNVRNILYLQMSSLRSEDTAMYFCTRGGYGSSYVIWGQGTTLTVSS
VL: DIVMSQSPSSLAVSVGEKITMSCKSSQSLLFSSIQKNYLAWYQQKPGQSPKLLVYWASTRESGVPDRFTGSGSGTDFTLTISSVKAEDLAVYYCQQYYSYPFTFGSGTKLEIK
notes: also called Ab_159; Ab_63
As to B2, the IC50 in experiment [1] turned out to be 5.7 nM; in experiment [2] it was 2.2 nM. The molecule further displayed a Kd in experiment [3] of 4.09 nM. Besides, the koff in experiment [3] came to 0.00216 s⁻¹. Further, in experiment [3], the kon came out at 528000 M⁻¹ s⁻¹. The ELISA signal in experiment [4] is 3.1; in experiment [5], 0.043; in experiment [6], 3.13.

B3: Ab_064 (H5S20-6A6A) (antibody, V domains shown)
VH: EVKLVESGGGLVKPGGSLKLSCAASGFTFSSFAMSWVRQTPEKRLEWVASISSGGNTYYPDNVKGRFTISRDNAGNILYLQMSSLRSEDTAMYYCARGGYGSSYVIWGQGTTLTVSS
VL: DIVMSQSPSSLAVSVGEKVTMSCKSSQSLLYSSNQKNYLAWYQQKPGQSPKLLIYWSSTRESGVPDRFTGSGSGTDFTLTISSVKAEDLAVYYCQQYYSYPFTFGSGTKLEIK
notes: also called Ab_64
With B3, the IC50 is 8.7 nM in experiment [1] and 1.5 nM in experiment [2]. The molecule also gave a Kd in experiment [3] of 10.7 nM. The molecule further gave a koff in experiment [3] of 0.00355 s⁻¹. This molecule also displayed a kon in experiment [3] of 333000 M⁻¹ s⁻¹. Also, the figures for the ELISA signal in experiment [4], in experiment [5] and in experiment [6] were 3.07, 0.044 and 0.987, respectively.

B4: Ab_066 (H5S20-1A1A) (antibody, V domains shown)
VH: EVKLVESGGGLVKPGGSLKLSCAASGFTFSSYAMSWVRQTPETRLEWVASISSGGDTFYRDSVKARFTISRDDVRDILYLQMSSLRSEDTAMYFCTRGGYGSSFVIWGQGTTLTVSS
VL: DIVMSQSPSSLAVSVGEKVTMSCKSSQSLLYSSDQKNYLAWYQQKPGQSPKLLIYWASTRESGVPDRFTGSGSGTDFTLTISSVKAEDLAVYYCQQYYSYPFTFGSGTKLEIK
notes: also called Ab_66
Take B4: the IC50 worked out at 10.4 nM in experiment [1] and 1.5 nM in experiment [2]. Further, in experiment [3], the Kd is 9.59 nM. In experiment [3], this molecule registered a koff of 0.00247 s⁻¹. In addition, in experiment [3], the kon was 258000 M⁻¹ s⁻¹. For the same molecule, the ELISA signal in experiment [4] was determined as 3.28; in experiment [5] it was 0.044; in experiment [6] it was 0.883.

B5: Ab_036 (H5S15-12A13A) (antibody, V domains shown)
VH: EVQLQQSGAELVKPGASVKLSCTASGFNIKDTYMHWVKQRPEQGLEWIGRIDPANGNTKFDPKFQGKATITADTSSNTAYLQLSSLTSEDTAVYYCASRGGSSFDYWGQGTTLTVSS
VL: DIVLTQSPASLAVSLGQRATISCKASQSVDYDGESYMNWYQQKPGQPPKLLIYAASNLDSGIPARFSGSGSGTDFTLNIHPVEEEDAATYYCQQSNEDPLTFGAGTKLELK
notes: also called Ab_36
For B5, the IC50 in experiment [1] amounted to 18.7 nM; in experiment [2] it was 0.8 nM. In experiment [3], the Kd was 18.7 nM. For the same molecule, in experiment [3], the koff came out at 0.0107 s⁻¹. The molecule also came in with a kon in experiment [3] of 571000 M⁻¹ s⁻¹. Further, the figures for the ELISA signal in experiment [4], in experiment [5] and in experiment [6] were 3.26, 0.046 and 0.079, respectively.

B6: Ab_051 (H5S19-4A6A) (antibody, V domains shown)
VH: QVQLKESGPGLVAPSQSLSITCTVSGFSLTGYGVNWVRQPPGKGLEWLGMIWGDGNTDYNSALKSRLSISKDNSKSQVFLKMNSLQTDDTARYYCARSYGSYWGQGTLVTVSA
VL: QIVLTQSPAIMSASPGEKVTMTCSASSSVSYMYWYQQKPGSSPRLLIYDTSNLASGVPVRFSGSGSGTSYSLTISRMEAEDAATYYCQQWSSYPFTFGSGTKLEIK
notes: also called Ab_51
B6: the values for the IC50 in experiment [1] and in experiment [2] were 18.6 nM and 1.3 nM, respectively. In experiment [3], this molecule displayed a Kd of 28.8 nM. In experiment [3], this molecule displayed a koff of 0.0143 s⁻¹. Also, the kon in experiment [3] came to 496000 M⁻¹ s⁻¹. Further, the ELISA signal in experiment [4] came to 3.18; in experiment [5], 0.043; in experiment [6] it was 0.563.
